Data as given in the supplement of paper PMC9170038.

System: MS2 coat protein
Test: apparent KD of MS2 coat protein; designed switch direction (-1 OFF switch, 1 ON switch): -1; higher = weaker reporter binding
Outline: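 Apparent KD, taken as the median over clusters for each design, was obtained by curve-fitting normalised cluster fluorescence. Designed RNA switches had been transcribed on Illumina chips by stalled E. coli RNA polymerase and titrated with SNAP-549-labelled MS2 coat protein, doubling from 0.7 or 1.5 nM to 3 µM.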

[1] = input ligand: microRNA oligo, concentration not stated
[2] = Eterna round: R95, input ligand: FMN 200 uM
[3] = Eterna round: R95, input ligand: microRNA oligo, concentration not stated
[4] = Eterna round: R95, input ligand: none

Sequence	apparent KD of MS2 coat protein (input ligand: FMN 200 uM) [nM]	apparent KD of MS2 coat protein (input ligand: none) [nM]	apparent KD of MS2 coat protein [1] [nM]	apparent KD of MS2 coat protein [2] [nM]	apparent KD of MS2 coat protein [3] [nM]	apparent KD of MS2 coat protein [4] [nM]
CUAUAUUUAGGAUAUGUUCGGCUAGACAUGAGGAUCACCCAUGUGAGCCUAGGAGCAGCCACAGAAGGGAGUAUGU [Eternabot (L2) Solution 62] (Eterna round: R97, puzzle: Exclusion 5)	27.6	32.8	–	–	–	–
ACAUGAGGAUCACCCAUGUGCCCAUCUAGCACAUGUCCUCGCUAGGAUAUGUAGGCCUCGAGGCCGCAGAAGGAGCUAAAAGAG [Atgequa] (Eterna round: R96, puzzle: Exclusion NG 3)	453	127	82.8	–	–	–
AGUCGAAAGACCAACAUGGACAUGAGGAUCACCCAUGUACAAGCCUUUUGCUCGUCACUAUCGUCAAAAGACGAUAG [Omei Mir Offv1 A1] (Eterna round: R97, puzzle: Sensor, turn-off variant 1)	34.5	32.8	–	–	–	–
UGAGUGCUGCGAGGAUAUACAUGAGGAUCACCCAUGUGGUGGUGUGAGGCUUUGCCUCACACCAUGUAGAAGGCGCAGUACUCU [JL ENG2 1.08] (Eterna round: R96, puzzle: Exclusion NG 2)	237	37.2	33.3	–	–	–
AAUAAGCUAGGAUAUACAUGAGGAUCACCCAUGUGAGGGCACCGCCGGCGCGGGCCCGGUAGAAGGAGUCAUAA [Exc;s3-V] (puzzle: Exclusion 3)	–	–	–	22.1	34.3	27.7
UGUACGAUGCGUGCUGACAUGCGUCGUGCAGCAGGUGGAACAUGAGGAUCACCCAUGUCCUCAUUUGCUCGUCUUGU [SL-sv3-2.10 JL mod] (puzzle: Sensor v3, turn-off variant 2)	–	–	–	54.7	140	52.3
UUUUCGUGAGGAUAUCAGUAGUAAAUAAAUAAAAUUACUACUGAGAAGGCACAUGAGGAUCACCCAUGUUCCUU [salish99_ex3_r3_094] (puzzle: Exclusion 4)	–	–	–	–	13.6	–
UUAAAACAUGUAGGAUAUGCGUAGAAAAGCUAUGCAGAAGGACAUGAGGAUCACCCAUGUUCAACCAUCAACGUACAGAUGGAA (Eterna round: R96, puzzle: Exclusion NG 1)	31.7	14.1	12.1	–	–	–
ACAAGCUUUUUCGUGGGUGACAUGAGGAUCACCCAUGUUUGCCACGUCUUGUGGGCCCGGGCCCGCGGCCCGGGCCC [-44.6, -64.9, A 13%] (Eterna round: R97, puzzle: Sensor, turn-off variant 1)	45.8	47.1	–	–	–	–
CUUUUGUGAGGAUAUCAGUAGUAAAUAAAUAUAAUUACUACUGAGAAGGCACAUGAGGAUCACCCAUGUUCCUC [salish99_ex3_r3_082] (puzzle: Exclusion 4)	–	–	–	–	38.2	–
CUUUCGUGAGGAUAUGUGGCUAAAAUCGUGAGAUCGAGGCUACAGAAGGCACAUGAGGAUCACCCAUGUUCCUC [salish99_ex4_r4_212] (Eterna round: R97, puzzle: Exclusion 4)	379	38.3	–	–	–	–
UUUUACCUAGGAUAUACAUUUUUUUUAUUAUUUUCAUUAUAACAUGAGGAUCACCCAUGUAGAAGGAGGAUUUU [My Design] (puzzle: Exclusion 2)	–	–	–	–	34.7	–
CCAAACAGAGGAUAUGCGAAUAAAUAAAACUUUUUUUUUUAACAUGAGGAUCACCCAUGUAGAAGGCUGCAACC [Ex2 #40] (Eterna round: R97, puzzle: Exclusion 2)	24.4	19.5	–	–	–	–
UUGUUAUAUGUAGGAUAUGCGUAUUAUUGUUAUGCAGAAGGACAUGAGGAUCACCCAUGUAUAUUAUUGUUAUAUAUUAUAUAU [Title] (Eterna round: R96, puzzle: Exclusion NG 1)	–	–	20.3	–	–	–
GGAAUACAUGAGGAUCACCCAUGUAAGGAUAUGCUGAUUAAUUAAUUAUAAUUAUGCAGCAGAAGGUACAAAGG [Mat - Mod of my Eli Mod D50] (puzzle: Exclusion 1)	–	–	–	–	87	–
GGCACACAUGUAGGAUAUCUGCACGUUUAGUGCAGAGAAGGACAUGAGGAUCACCCAUGUAAUUAAGAUCAAUUAUUAAGUGCC [ENG1/3-A2] (Eterna round: R96, puzzle: Exclusion NG 1)	564	58.3	48.6	–	–	–
AGCCAAGCAGGAUAUGCCCGGGAUAACAUGAGGAUCACCCAUGUGACCGAUUGAUGUCCUGCAGAAGGGCUUGGGA [Mod of ViennaUCT - Jieux - Exclusion 5] (Eterna round: R97, puzzle: Exclusion 5)	83.2	17.9	–	–	–	–
GUUAGUUAAGGAUAUACUGGGAGCUGCGGCGUCUCGCCGCAACAUGAGGAUCACCCAUGUAGAAGGUGGCCAUU [JL ViennaUCT Enbibi mod 4] (puzzle: Exclusion 2)	–	–	–	–	640	–
GUGUAGUGAGGAUAUACAUGAGGAUCACCCAUGUGAAUAAGAUAGAAUAAGAUAAAGUGUAGAAGGCACAGUGU [Excluse me!!! 3 - Jieux - Exclusion 3] (puzzle: Exclusion 3)	–	–	–	39.5	35.7	41.9
UUAAUUUAAGGGAUAGAUCAUUACAUGAGGAUCACCCAUGUUGAGGAUAUCAGCUCGUGUAGAGCUGAGAAGGCAACAAUAGGG [ExNG3/14-A3] (Eterna round: R96, puzzle: Exclusion NG 3)	249	92.3	377	–	–	–
ACAUGUAUUGCAGGAUAUGGGACACAUGAGGAUCACCCAUGUGACCAUAUGUAAUGCUAAGAGUCUCAGAAGGGUAUGUACAUG [Ex NG2 #45] (Eterna round: R96, puzzle: Exclusion NG 2)	10.7	11.4	8.59	–	–	–
GGUCGUCAAGUCAGGAUAUCGUUUGGUCGGUGUAACGAGAAGGGACAUGAGGAUCACCCAUGUCGUCUCAUCAG [Ex4 #28] (Eterna round: R97, puzzle: Brourd's mod of Exclusion 4)	29.3	20.4	–	–	–	–
AAAUCUCACGUAAGGAUAUCCUGGGCAACGUCCACGGAGAAGGUACAUGAGGAUCACCCAUGUGCUCGCUAUAC [BmEX4 C.1] (Eterna round: R97, puzzle: Brourd's mod of Exclusion 4)	25.2	19.7	–	–	–	–
GCGGGCUUUUUGCUCGUUUACAUGAGGAUCACCCAUGUGUCUUCGCGCCCGGGCCCGGGCGGGCCCGGGCCCGGGCG [-52.3, -76.4, A 8%] (Eterna round: R97, puzzle: Sensor, turn-off variant 1)	36.1	41.5	–	–	–	–
